According to IntAct's records for PubMed 18715871:

B1: Serine/threonine-protein phosphatase 4 catalytic subunit (Homo sapiens), P60510 (parent)
chain: MAEISDLDRQIEQLRRCELIKESEVKALCAKAREILVEESNVQRVDSPVTVCGDIHGQFYDLKELFRVGGDVPETNYLFMGDFVDRGFYSVETFLLLLALKVRYPDRITLIRGNHESRQITQVYGFYDECLRKYGSVTVWRYCTEIFDYLSLSAIIDGKIFCVHGGLSPSIQTLDQIRTIDRKQEVPHDGPMCDLLWSDPEDTTGWGVSPRGAGYLFGSDVVAQFNAANDIDMICRAHQLVMEGYKWHFNETVLTVWSAPNYCYRCGNVAAILELDEHLQKDFIIFEAAPQETRGIPSKKPVADYFL
partner: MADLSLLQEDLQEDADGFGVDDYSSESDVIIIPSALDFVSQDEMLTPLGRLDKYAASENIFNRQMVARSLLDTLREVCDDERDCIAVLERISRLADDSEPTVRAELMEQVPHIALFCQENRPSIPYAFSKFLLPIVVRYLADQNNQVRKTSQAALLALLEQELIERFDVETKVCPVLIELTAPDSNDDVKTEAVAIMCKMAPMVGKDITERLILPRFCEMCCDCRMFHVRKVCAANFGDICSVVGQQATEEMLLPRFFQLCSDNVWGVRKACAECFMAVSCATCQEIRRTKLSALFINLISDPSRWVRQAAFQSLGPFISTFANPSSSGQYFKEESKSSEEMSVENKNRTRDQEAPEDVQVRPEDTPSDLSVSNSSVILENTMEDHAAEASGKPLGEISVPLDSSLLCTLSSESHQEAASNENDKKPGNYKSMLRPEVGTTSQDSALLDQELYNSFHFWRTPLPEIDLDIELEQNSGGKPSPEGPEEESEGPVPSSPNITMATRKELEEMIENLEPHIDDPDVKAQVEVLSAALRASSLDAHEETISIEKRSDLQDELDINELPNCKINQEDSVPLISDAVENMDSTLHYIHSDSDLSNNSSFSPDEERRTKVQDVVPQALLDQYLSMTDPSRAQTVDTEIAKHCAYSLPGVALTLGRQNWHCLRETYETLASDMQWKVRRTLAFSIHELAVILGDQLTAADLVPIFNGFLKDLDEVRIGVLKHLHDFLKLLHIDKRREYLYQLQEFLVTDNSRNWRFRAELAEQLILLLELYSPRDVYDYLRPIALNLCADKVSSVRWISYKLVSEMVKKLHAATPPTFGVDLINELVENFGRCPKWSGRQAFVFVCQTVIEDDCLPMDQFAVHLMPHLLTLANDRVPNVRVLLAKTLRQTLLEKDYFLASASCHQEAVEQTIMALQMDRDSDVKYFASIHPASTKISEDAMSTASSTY
B2: Serine/threonine-protein phosphatase 4 regulatory subunit 4 (Homo sapiens), Q6NUP7 (parent)
chain: MHPPPPAAAMDFSQNSLFGYMEDLQELTIIERPVRRSLKTPEEIERLTVDEDLSDIERAVYLLSAGQDVQGTSVIANLPFLMRQNPTETLRRVLPKVREALHVAGVEMQLTAAMSFLTILQDESVSIHAYTHSFLQVILLHLEHRDTGVSNAWLETLLSVIEVLPKETLRHEILNPLVSKAQLSQTVQSRLVSCKILGKLTNKFDAHTIKREILPLVKSLCQDVEYEVRSCMCRQLENIAQGIGTELTKSVVLPELIELSRDEGSSVRLAAFETLVNLLDIFDTDDRSQTILPLVKSFCEKSFKADESILISLSFHLGKLCHGLYGIFTPDQHLRFLEFYKKLCTLGLQQENGHNENQIPPQILEQEKKYISVRKNCAYNFPAMIVFVDPKNFHMELYSTFFCLCHDPEVPVRYTIAICFYEVSKLLNSGVYLIHKELITLLQDESLEVLDALIDHLPEILELMSTGGESSVQENKLSSLPDLIPALTAAEQRAAASLKWRTHEKLLQKYACLPHVISSDQIYYRFLQRMFTIMMTNNVLPVQKAASRTLCIFLRYNRKQEQRHEVIQKLIEQLGQGKSYWNRLRFLDTCEFIIEIFSKSFFCKYFFLPAIELTHDPVANVRMKLCYLLPKVKSTLKIPADKHLLQQLEMCVRKLLCQEKDKDVLAIVKRTVLELDRMEMSMDAFQKKFYEKDLLDQEKEREELLLLEMEQLEKEKQQNDGRPMSDKMFEKKRRDTKTPTQSLPKNIPISVPGPSSVTPSTSKEIKKSKLIRSQSFNNQAFHAKYGNLEKCASKSSTTGYTTSVSGLGKTSVLSLADDSFRTRNASSVPSSFSPNTPLPSTSRGTGNSVDPKSSGSKDTQPRKATLKSRKSNP
partner: B1 chain
B3: Serine/threonine-protein phosphatase 4 catalytic subunit (Homo sapiens), P60510 (parent)
chain: B1 chain
partner: B2 chain

Variants of: B1
Conditions: with pp4r1_human PPP4R1, Q8TF05

Variant	effect of a mutation on the interaction
MAEISDLDRQIEQLRRCELIKESEVKALCAKAREILVEKSNVQRVDSPVTVCGDIHGQFYDLKELFRVGGDVPETNYLFMGDFVDRGFYSVETFLLLLALKVRYPDRITLIRGNHESRQITQVYGFYDECLRKYGSVTVWRYCTEIFDYLSLSAIIDGKIFCVHGGLSPSIQTLDQIRTIDRKQEVPHDGPMCDLLWSDPEDTTGWGVSPRGAGYLFGSDVVAQFNAANDIDMICRAHQLVMEGYKWHFNETVLTVWSAPNYCYRCGNVAAILELDEHLQKDFIIFEAAPQETRGIPSKKPVADYFL [E39K]	disrupting interaction

Variants of: B2
Conditions: with pp4c_human PPP4C

Variant	effect of a mutation on the interaction
R501D	disrupting interaction
V618A	disrupting interaction
V618D	disrupting interaction

Variants of: B3
Conditions: with pp4r4_human PPP4R4, Q6NUP7

Variant	effect of a mutation on the interaction
MAEISDLDRQIEQLRRCELIKESEVKALCAKAREILVEESNVQRVDSPVTVCGDIHGQFYDLKKLFRVGGDVPETNYLFMGDFVDRGFYSVETFLLLLALKVRYPDRITLIRGNHESRQITQVYGFYDECLRKYGSVTVWRYCTEIFDYLSLSAIIDGKIFCVHGGLSPSIQTLDQIRTIDRKQEVPHDGPMCDLLWSDPEDTTGWGVSPRGAGYLFGSDVVAQFNAANDIDMICRAHQLVMEGYKWHFNETVLTVWSAPNYCYRCGNVAAILELDEHLQKDFIIFEAAPQETRGIPSKKPVADYFL [E64K]	disrupting interaction
MAEISDLDRQIEQLRRCELIKESEVKALCAKAREILVEESNVQRVDSPVTVCGDIHGQFYDLKELFRVGGDVPETDYLFMGDFVDRGFYSVETFLLLLALKVRYPDRITLIRGNHESRQITQVYGFYDECLRKYGSVTVWRYCTEIFDYLSLSAIIDGKIFCVHGGLSPSIQTLDQIRTIDRKQEVPHDGPMCDLLWSDPEDTTGWGVSPRGAGYLFGSDVVAQFNAANDIDMICRAHQLVMEGYKWHFNETVLTVWSAPNYCYRCGNVAAILELDEHLQKDFIIFEAAPQETRGIPSKKPVADYFL [N76D]	decreasing interaction
MAEISDLDRQIEQLRRCELIKESEVKALCAKAREILVEESNVQRVDSPVTVCGDIHGQFYDLKELFRVGGDVPETNYLFMGDFVDRGFYSVETFLLLLALKVRYPDEITLIRGNHESRQITQVYGFYDECLRKYGSVTVWRYCTEIFDYLSLSAIIDGKIFCVHGGLSPSIQTLDQIRTIDRKQEVPHDGPMCDLLWSDPEDTTGWGVSPRGAGYLFGSDVVAQFNAANDIDMICRAHQLVMEGYKWHFNETVLTVWSAPNYCYRCGNVAAILELDEHLQKDFIIFEAAPQETRGIPSKKPVADYFL [R107E]	decreasing interaction
MAEISDLDRQIEQLRRCELIKESEVKALCAKAREILVEKSNVQRVDSPVTVCGDIHGQFYDLKELFRVGGDVPETNYLFMGDFVDRGFYSVETFLLLLALKVRYPDRITLIRGNHESRQITQVYGFYDECLRKYGSVTVWRYCTEIFDYLSLSAIIDGKIFCVHGGLSPSIQTLDQIRTIDRKQEVPHDGPMCDLLWSDPEDTTGWGVSPRGAGYLFGSDVVAQFNAANDIDMICRAHQLVMEGYKWHFNETVLTVWSAPNYCYRCGNVAAILELDEHLQKDFIIFEAAPQETRGIPSKKPVADYFL [E39K]	decreasing interaction
MAEISDLDRQIEQLRRCELIKESEVKALCAKAREILVEESNVQRVDSPVTVCGDIHGQFYDLKELFRVGGDVPETNYLFMGDFVDRGFYSVETFLLLLALKVRYPDRITLIRGNHESRQITQVYGFYDECLRKYGSVTVWRYCTEIFDYLSLSAIIDGKIFCVHGGLSPSIQTLDQIRTIDRKQEVPHDGPMCDLLWSDPEDTTGWGVSPRGAGYLFGSDVVAQFNAANDIDMICRAHQLVMEGYKWHFNETVLTVWSAPNYCYRCGNVAAILELDKHLQKDFIIFEAAPQETRGIPSKKPVADYFL [E277K]	disrupting interaction
